The record followed here is paper doi:10.1101/359182, “Capturing auxin response factors syntax using DNA binding models”.

In this data set the target is T1, MP (ARF5/Monopteros) (UniProt P93024 1-902).
T1 sequence: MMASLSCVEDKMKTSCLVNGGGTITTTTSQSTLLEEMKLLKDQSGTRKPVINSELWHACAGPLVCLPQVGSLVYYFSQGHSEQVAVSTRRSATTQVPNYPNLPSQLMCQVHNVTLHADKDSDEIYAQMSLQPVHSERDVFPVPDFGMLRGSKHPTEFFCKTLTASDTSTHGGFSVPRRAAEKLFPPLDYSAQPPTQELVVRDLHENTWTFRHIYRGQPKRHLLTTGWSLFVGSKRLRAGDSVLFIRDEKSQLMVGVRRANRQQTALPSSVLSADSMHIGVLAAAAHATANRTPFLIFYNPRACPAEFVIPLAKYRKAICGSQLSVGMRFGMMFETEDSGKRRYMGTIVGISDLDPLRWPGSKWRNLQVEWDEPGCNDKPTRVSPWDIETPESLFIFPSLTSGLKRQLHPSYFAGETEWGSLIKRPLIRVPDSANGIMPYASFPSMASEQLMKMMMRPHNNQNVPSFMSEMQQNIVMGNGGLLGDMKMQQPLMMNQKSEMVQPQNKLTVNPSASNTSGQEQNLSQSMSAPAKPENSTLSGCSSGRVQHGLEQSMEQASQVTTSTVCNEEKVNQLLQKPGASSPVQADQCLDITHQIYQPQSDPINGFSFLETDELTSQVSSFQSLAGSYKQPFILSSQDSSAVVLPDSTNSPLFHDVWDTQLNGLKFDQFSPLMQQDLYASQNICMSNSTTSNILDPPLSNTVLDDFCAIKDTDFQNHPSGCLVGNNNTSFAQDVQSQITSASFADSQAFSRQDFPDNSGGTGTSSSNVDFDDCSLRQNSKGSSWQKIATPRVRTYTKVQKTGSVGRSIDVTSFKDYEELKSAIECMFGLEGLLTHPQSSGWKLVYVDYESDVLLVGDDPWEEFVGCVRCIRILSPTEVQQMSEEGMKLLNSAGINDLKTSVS
In words: EMSA; EMSA: 25 mM HEPES pH 7.4, 1 mM EDTA, 2 mM MgCl2, 100 mM KCl, 10% glycerol, 1 mM DTT, 0.5 mM PMSF, 0.1% Triton, 0.045 mg/ml salmon/herring DNA, 20 nM probe, protein 0-500 nM, 1 h at 4 C, 2% agarose in 0.5x TBE. The conditions noted are these: protein: recombinant; tags: N-terminal His-MBP-His; label: Cy5-dCTP, Klenow fill-in opposite 5' G; blunt after fill-in of 5' G overhang.

B1: IR13 (dsDNA)
DNA 1: GATGCAGCCGACAAAACACATGATTTTGTCGGCTCACAT
DNA 2: ATGTGAGCCGACAAAATCATGTGTTTTGTCGGCTGCATC
In the case of B1, the binding result was “binds”.
